Consider one substance from patent publication US20040259112A1.

In general, Kd refers to a measure of binding affinity in units of concentration. A lower Kd goes with tighter binding.

For experiment [1], the target named is human vimentin (full length) (human) (UniProt P08670). Kind of experiment: cell-based or functional assay.
Experiment [2] has the same target. In words: Scatchard analysis, intact cell radioimmunoassay with 125I-labeled antibody on MDA cells.
Experiment [3] shares this target. In words: quantitative FACS (quantum simply cellular beads) on HL60 cells at saturating antibody (40 µg).
For experiment [4] the target is unchanged. In words: quantitative FACS (quantum simply cellular beads) on MCF-7 cells at saturating antibody (50 µg).
Experiment [5] has the same target. Kind of experiment: quantitative FACS (quantum simply cellular beads) on HL60/AR cells at saturating antibody (40 µg).
For experiment [6] the target is unchanged. Kind of experiment: quantitative FACS (quantum simply cellular beads) on MCF-7/AR cells at saturating antibody (50 µg).
Experiment [7] shares this target. In words: FACS, indirect immunofluorescence on HL60 cells with 2.5 µg to 40 µg antibody; isotype control subtracted. Background: A flow cytometer gives signals particle by particle.
Experiment [8] has the same target. Kind of experiment: Scatchard analysis, intact cell radioimmunoassay with 125I-labeled antibody on MDA/mito cells; average of 5 determinations.

Chain of human vimentin (full length) (human) (P08670 other isoform, or with tags, fused parts or gaps limits assumed): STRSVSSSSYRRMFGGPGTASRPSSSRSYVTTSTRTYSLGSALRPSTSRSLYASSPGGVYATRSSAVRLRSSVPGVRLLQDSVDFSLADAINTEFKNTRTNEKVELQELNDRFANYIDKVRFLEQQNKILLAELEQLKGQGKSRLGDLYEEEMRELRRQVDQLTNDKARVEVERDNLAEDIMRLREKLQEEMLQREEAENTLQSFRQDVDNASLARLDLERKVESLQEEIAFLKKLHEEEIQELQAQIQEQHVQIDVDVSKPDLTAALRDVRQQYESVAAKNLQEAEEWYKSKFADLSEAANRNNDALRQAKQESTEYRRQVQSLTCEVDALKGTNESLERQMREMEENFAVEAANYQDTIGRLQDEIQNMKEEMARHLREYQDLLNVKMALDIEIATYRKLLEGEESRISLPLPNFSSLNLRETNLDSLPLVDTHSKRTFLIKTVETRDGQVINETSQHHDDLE

In experiment [1], “mouse monoclonal anti-vimentin antibody (clone V9, NeoMarker MS-129-P)” gave a % internalization of 125I-labeled antibody, MCF-7/AR cells in suspension (difference between 4 and 37° C.) of 38.2%; an increase in cytotoxicity of 125I-labeled antibody on HL60/AR against HL60 (MTT based assay) of 10%; a percent internalization of vimentin, adherent MCF-7/AR cells (difference between 4 and 37° C.) of 11.3%; a percent internalization of vimentin, adherent MDA cells (difference between 4 and 37° C.) of 25.3%. In experiment [1], this substance yielded a percent internalization of vimentin, adherent MDA/AR cells (difference between 4 and 37° C.) of 24.8%; a percent internalization of vimentin, adherent MDA/mito cells (difference between 4 and 37° C.) of 8.9%. In addition, in experiment [2], the Kd worked out at 9.3 nM. In addition, in experiment [3], the antibody molecules bound per cell (molecules of vimentin per cell) (molecules per cell) amounted to 186. The substance also gave an antibody molecules bound per cell (molecules of vimentin per cell) (molecules per cell) in experiment [4] of 14600. The antibody molecules bound per cell (molecules of vimentin per cell) (molecules per cell) in experiment [5] is 5050. This substance also showed an antibody molecules bound per cell (molecules of vimentin per cell) (molecules per cell) in experiment [6] of 22000. The fluorescence intensity (RFI) in experiment [7] was 0.2 to 0.9 RFI. This substance had a Kd in experiment [8] of 5.7 nM.
